# Results taken from paper PMC3195632.
# Tested on: His6-H1.4 (unphosphorylated) (human)
# Assay: EMSA
substance,measurement,value
216-bp 601 mononucleosome,binding signal (% shifted (H1-shifted band)),35.9
